Patent publication US20140105889A1 (published 2014)
Where a chain is given by its changes, count along the chain named. Values belong to the binder of their own block, whether it stands above or below them.

Columns and labels:
human FcγRIIIa(F) = target: T1, human FcγRIIIa(F) (human, UniProt P08637 17-208, limits assumed); assay: SPR (Biacore), antibody captured on Protein L, human FcgR as analyte, pH 7.4, 25 C; amount normalised to captured antibody
T1 construct: also called hFcgRIIIa(F); allotype F158
T1 sequence (P08637 other isoform, or with tags, fused parts or gaps limits assumed): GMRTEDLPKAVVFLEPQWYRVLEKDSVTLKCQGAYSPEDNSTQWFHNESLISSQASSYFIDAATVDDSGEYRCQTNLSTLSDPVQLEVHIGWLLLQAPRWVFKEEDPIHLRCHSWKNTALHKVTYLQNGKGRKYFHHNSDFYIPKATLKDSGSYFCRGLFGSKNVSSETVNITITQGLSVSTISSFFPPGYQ

human FcγRIIb = target: T2, human FcγRIIb (human, UniProt P31994 43-217); assay: SPR (Biacore); KD of parent IL6R-B3/IL6R-L for FcγRIIb divided by KD of the variant for FcγRIIb
T2 construct: also called FcγIIB
T2 sequence: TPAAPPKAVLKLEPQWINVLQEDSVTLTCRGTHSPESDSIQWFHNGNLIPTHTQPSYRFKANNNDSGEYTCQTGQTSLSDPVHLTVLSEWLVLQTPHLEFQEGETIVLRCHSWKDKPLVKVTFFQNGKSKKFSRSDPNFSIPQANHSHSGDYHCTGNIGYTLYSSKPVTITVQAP
Text: Furthermore, KD(IIaR)/KD(IIb) and KD(IIaH)/KD(IIb) in the table respectively represent the value obtained by dividing the KD value of each variant for FcγRIIaR by the KD value of each variant for FcγRIIb, and the value obtained by dividing the KD value of each variant for FcγRIIaH by the KD value of each variant for FcγRIIb.

[1] = target: T3, human FcγRIIIa type V (allotype V158) (human, UniProt P08637 17-208, limits assumed); assay: SPR (Biacore), antibody captured on the chip, FcγR as analyte
T3 construct: the assay used allotype V158; also called FcγRIIIaV; FcγRIIIa(V)
T3 sequence (P08637 other isoform, or with tags, fused parts or gaps limits assumed): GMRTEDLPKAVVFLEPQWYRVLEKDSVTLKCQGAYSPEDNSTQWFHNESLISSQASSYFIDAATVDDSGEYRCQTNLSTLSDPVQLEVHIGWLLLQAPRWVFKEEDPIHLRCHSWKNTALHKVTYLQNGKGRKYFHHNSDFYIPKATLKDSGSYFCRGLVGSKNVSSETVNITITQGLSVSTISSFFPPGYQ

B2: IL6R-BP187/IL6R-L (antibody, human IgG1)
heavy: QVQLQESGPGLVKPSETLSLTCAVSGHSISHDHAWSWVRQPPGEGLEWIGFISYSGITNYNPSLQGRVTISRDNSKNTLYLQMNSLRAEDTAVYYCARSLARTTAMDYWGEGTLVTVSSASTKGPSVFPLAPSSKSTSGGTAALGCLVKDYFPEPVTVSWNSGALTSGVHTFPAVLQSSGLYSLSSVVTVPSSSLGTQTYICNVNHKPSNTKVDKKVEPKSCDKTHTCPPCPAPEYLGGDSVFLFPPKPKDTLMISRTPEVTCVVVDVSHEDGEVKFNWYVDGVEVHNAKTKPREEQYNSTYRVVSVLTVLHQDWLNGKEYKCKVSNAALPKPIEKTISKAKGQPREPQVYTLPPSRDELTKNQVSLTCLVKGFYPSDIAVEWESNGQPENNYKTTPPVLDSDGSFFLYSKLTVDKSRWQQGNVFSCSVMHEALHNHYTQESLSLSP
light: DIQMTQSPSSLSASVGDRVTITCRASQDISSYLNWYQQKPGKAPKLLIYYTSRLHSGVPSRFSGSGSGTDFTFTISSLQPEDIATYYCQQGNTLPYTFGQGTKVEIK
notes: Anti-human IL-6 receptor human IgG1 variant; copies: 2 + 2
KD(IIb) of the parent polypeptide/KD(IIb) of the altered polypeptide (human FcγRIIb): 1.7
Kd [1]: 56 µM

B6: IL6R-BP190/IL6R-L (antibody, human IgG1)
heavy: B2 heavy with Y236L, G239D, H270D, A328K
light: B2 light
notes: as for B2
KD(IIb) of the parent polypeptide/KD(IIb) of the altered polypeptide (human FcγRIIb): 53.2
Kd [1]: 45 µM

B8: IL6R-BP186/IL6R-L (antibody, human IgG1)
heavy: B2 heavy with E235D, G239D, Y298D
light: B2 light
notes: as for B2
KD(IIb) of the parent polypeptide/KD(IIb) of the altered polypeptide (human FcγRIIb): 50.7
Kd [1]: 49 µM

B10: IL6R-BP183/IL6R-L (antibody, human IgG1)
heavy: B2 heavy with E235D
light: B2 light
notes: as for B2
KD(IIb) of the parent polypeptide/KD(IIb) of the altered polypeptide (human FcγRIIb): 12.9
Kd [1]: 56 µM

B12: IL6R-BP191/IL6R-L (antibody, human IgG1)
heavy: B2 heavy with E235D, Y236L, H270D
light: B2 light
notes: as for B2
KD(IIb) of the parent polypeptide/KD(IIb) of the altered polypeptide (human FcγRIIb): 21.2
Kd [1]: 49 µM

Further lines, results first:

BINDING AMOUNT (RU) (human FcγRIIIa(F)): -0.34 RU
B1: antibody containing VH3-IgG1-F938 for the heavy chain and L(WT)-CK for the light chain (antibody)
heavy: QVQLQESGPGLVKPSETLSLTCAVSGHSISHDHAWSWVRQPPGEGLEWIGFISYSGITNYNPSLQGRVTISRDNSKNTLYLQMNSLRAEDTAVYYCARSLARTTAMDYWGEGTLVTVSSASTKGPSVFPLAPSSKSTSGGTAALGCLVKDYFPEPVTVSWNSGALTSGVHTFPAVLQSSGLYSLSSVVTVPSSSLGTQTYICNVNHKPSNTKVDKKVEPKSCDKTHTCPPCPAPELKGGPKVFLFPPKPKDTLYISRTPEVTCVVVDVSHEDPEVKFNWYVDGVEVHNAKTKPREEQYNSTYRVVSVLTVLHQDWLNGKEYKCKVSNKALPAPIEKTISKAKGQPREPQVYTLPPSRDELTKNQVSLTCLVKGFYPSDIAVEWESNGQPENNYKTTPPVLDSDGSFFLYSKLTVDKSRWQQGNVFSCSVMHEALHYHVTQKSLSLSP
light: not shown

KD(IIb) of the parent polypeptide/KD(IIb) of the altered polypeptide (human FcγRIIb): 15.7
Kd [1]: 44 µM
B3: IL6R-BP198/IL6R-L (antibody, human IgG1)
heavy: B2 heavy with E235D, H270D
light: B2 light
notes: as for B2

BINDING AMOUNT (RU) (human FcγRIIIa(F)): 0.51 RU
B4: antibody containing VH3-IgG1-F939 for the heavy chain and L(WT)-CK for the light chain (antibody)
heavy: B1 heavy with K237R
light: not shown

KD(IIb) of the parent polypeptide/KD(IIb) of the altered polypeptide (human FcγRIIb): 82
Kd [1]: 31 µM
B5: IL6R-BP195/IL6R-L (antibody, human IgG1)
heavy: B2 heavy with E235D, G239D, H270D, Y298D
light: B2 light
notes: as for B2

KD(IIb) of the parent polypeptide/KD(IIb) of the altered polypeptide (human FcγRIIb): 53.7
Kd [1]: 33 µM
B7: IL6R-BP197/IL6R-L (antibody, human IgG1)
heavy: B2 heavy with E235D, G239D, H270D, Y298D, A328D
light: B2 light
notes: as for B2

KD(IIb) of the parent polypeptide/KD(IIb) of the altered polypeptide (human FcγRIIb): 13.9
Kd [1]: 51 µM
B9: IL6R-BP196/IL6R-L (antibody, human IgG1)
heavy: B2 heavy with H270D
light: B2 light
notes: as for B2

BINDING AMOUNT (RU) (human FcγRIIIa(F)): 105 RU
B11: antibody containing VH3-IgG1-F947 for the heavy chain and L(WT)-CK for the light chain (antibody)
heavy: B1 heavy with K237L, K241S, T252V, T309Q, V310P, Q313A
light: not shown
